Biological target: hen egg white lysozyme (chicken) (UniProt P00698)
Assay: SPR; lysozyme immobilised on a CM5 chip by amine coupling (200 RU); Affitins injected at 15.6-500 nM; 25 °C; HBSEP pH 7.4 (10 mM Hepes, 150 mM NaCl, 2 mM EDTA, 0.05% P20); association 2 min, dissociation 7 min; apparent

Sequence of UniProt P00698 (P00698 19-147): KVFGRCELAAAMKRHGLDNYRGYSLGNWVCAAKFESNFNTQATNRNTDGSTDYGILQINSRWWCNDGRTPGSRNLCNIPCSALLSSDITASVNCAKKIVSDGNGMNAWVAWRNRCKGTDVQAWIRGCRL

First: Affitin H4 mutant M1 (F6W-F7I) (designed binder)
Second: Affitin H4 mutant M2 (L31I-F32W) (designed binder)
The Kd of the first is 110-fold lower: 3.98 nM for the first, 440 nM for the second.

“Affitin H4 mutant M3 (L54I-L55V-L58I) (designed binder)” was tested, and the Kd was 7.5 nM.

— paper PMC7661517
